Experimental data taken from patent publication US20220363770A1 (Amgen, published 2022).

T1: human PAC1 receptor (human, UniProt P41586 24-468)
T1 sequence: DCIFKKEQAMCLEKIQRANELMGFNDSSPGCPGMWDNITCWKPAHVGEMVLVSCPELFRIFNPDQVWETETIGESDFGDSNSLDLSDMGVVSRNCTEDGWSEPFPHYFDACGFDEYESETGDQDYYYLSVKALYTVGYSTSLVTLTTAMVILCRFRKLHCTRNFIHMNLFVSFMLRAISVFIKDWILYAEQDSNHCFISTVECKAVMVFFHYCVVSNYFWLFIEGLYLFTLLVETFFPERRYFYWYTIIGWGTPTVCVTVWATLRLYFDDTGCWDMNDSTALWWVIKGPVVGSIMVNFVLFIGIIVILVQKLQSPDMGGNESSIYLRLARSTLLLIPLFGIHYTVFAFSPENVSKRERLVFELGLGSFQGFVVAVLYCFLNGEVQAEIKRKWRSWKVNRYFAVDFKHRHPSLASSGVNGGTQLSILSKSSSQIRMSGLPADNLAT


Legend:
human PAC1 receptor = target: T1, human PAC1 receptor; assay: cell-based or functional assay
human CGRP receptor = human CGRP receptor (human, UniProt Q16602 23-461; O60894 27-148); assay: cell-based or functional assay
human CGRP receptor, sequence (Q16602 23-461 limits assumed, chain 1 of 2): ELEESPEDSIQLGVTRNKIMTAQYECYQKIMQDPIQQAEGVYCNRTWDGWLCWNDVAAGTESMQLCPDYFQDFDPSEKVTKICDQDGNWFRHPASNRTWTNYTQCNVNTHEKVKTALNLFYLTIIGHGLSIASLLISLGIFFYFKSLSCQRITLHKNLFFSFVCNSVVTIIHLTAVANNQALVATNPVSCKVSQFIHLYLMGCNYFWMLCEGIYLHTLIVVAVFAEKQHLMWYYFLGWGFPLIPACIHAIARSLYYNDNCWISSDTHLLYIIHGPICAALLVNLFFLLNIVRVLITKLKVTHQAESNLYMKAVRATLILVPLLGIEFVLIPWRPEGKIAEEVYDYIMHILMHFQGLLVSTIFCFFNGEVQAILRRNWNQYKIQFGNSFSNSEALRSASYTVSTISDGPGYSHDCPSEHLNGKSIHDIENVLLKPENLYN
human CGRP receptor, sequence (O60894 27-148 limits assumed, chain 2 of 2): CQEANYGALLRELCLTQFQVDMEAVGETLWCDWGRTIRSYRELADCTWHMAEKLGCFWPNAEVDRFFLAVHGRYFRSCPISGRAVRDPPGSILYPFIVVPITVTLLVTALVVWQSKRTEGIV

| Binder | Fold-improvement over 29G4v22 Ab (human PAC1 receptor) [fold] | IC50 (human PAC1 receptor) [nM] | Fold-improvement over 4E4 Ab (human CGRP receptor) [fold] | IC50 (human CGRP receptor) [nM] |
| --- | --- | --- | --- | --- |
| iPS:454745 (bispecific antibody, human IgG1, kappa, lambda, N297G) light 1: QSVLTQPPSVSAAPGQKVTISCSGSYSNIGRYSVSWYQQLPGTAPKLLIYDNNKRPSGIPDRFSGSKSGTSATLGITGLQTGDEADYYCGTWDSRLSAVVFGGGTKLTVLGQPKAAPSVTLFPPSSEELQANKATLVCLISDFYPGAVTVAWKADSSPVKAGVETTTPSKQSNNKYAAKSYLSLTPEQWKSHRSYSCQVTHEGSTVEKTVAPTECS heavy 1: QVQLVESGGGVVQPGRSLRLSCAASGFTFSSFGMHWVRQAPGKGLEWVAVISFDGSIKYSVDSVKGRFTISRDNSKNTLFLQMNSLRAEDTAVYYCARDRLNYYESSGYYHYKYYGMAVWGQGTTVTVSSASTKGPSVFPLAPSSKSTSGGTAALGCLVKDYFPEPVTVSWNSGALTSGVHTFPAVLQSSGLYSLESVVTVPSSSLGTQTYICNVNHKPSNTKVDKKVEPKSCDKTHTCPPCPAPELLGGPSVFLFPPKPKDTLMISRTPEVTCVVVDVSHEDPEVKFNWYVDGVEVHNAKTKPCEEQYGSTYRCVSVLTVLHQDWLNGKEYKCKVSNKALPAPIEKTISKAKGQPREPQVYTLPPSRKKMTKNQVSLTCLVKGFYPSDIAVEWESNGQPENNYKTTPPVLKSDGSFFLYSKLTVDKSRWQQGNVFSCSVMHEALHNHYTQKSLSLSPGK light 2: EIVLTQSPATLSLSPGERATLSCRASKAVGFSLHWYQQKPGQAPRLLIKYASQSLSGIPARFSGSGSGTDFTLTISSLEPEDFAVYYCHQSSFLPFTFGPGTKVDIKRTVAAPSVFIFPPSDEQLKSGTASVVCLLNNFYPREAKVQWKVDNALQSGNSQESVTEQDSKDSTYSLESTLTLSKADYEKHKVYACEVTHQGLSSPVTKSFNRGEC heavy 2: not shown | 5.2 | 1.2 | 1.3 | 0.46 |
| iPS:454751 (bispecific antibody, human IgG1, kappa, lambda, N297G) light 1: QSVLTQPPSVSAAPGQKVTISCSGSYSNIGRYSVSWYQQLPGTAPKLLIYDNNKRPSGIPDRFSGSKSGTSATLGITGLQTGDEADYYCGTWDSRLSAVVFGGGTKLTVLGQPKAAPSVTLFPPSSEELQANKATLVCLISDFYPGAVTVAWKADSSPVKAGVETTTPSKQSNNKYAAKSYLSLTPEQWKSHRSYSCQVTHEGSTVEKTVAPTECS heavy 1: QVQLVESGGGVVQPGRSLRLSCAASGFTFSSFGMHWVRQAPGKGLEWVAVISFDGSIKYSVDSVKGRFTISRDNSKNTLFLQMNSLRAEDTAVYYCARDRLNYYESSGYYHYKYYGMAVWGQGTTVTVSSASTKGPSVFPLAPSSKSTSGGTAALGCLVKDYFPEPVTVSWNSGALTSGVHTFPAVLQSSGLYSLESVVTVPSSSLGTQTYICNVNHKPSNTKVDKKVEPKSCDKTHTCPPCPAPELLGGPSVFLFPPKPKDTLMISRTPEVTCVVVDVSHEDPEVKFNWYVDGVEVHNAKTKPCEEQYGSTYRCVSVLTVLHQDWLNGKEYKCKVSNKALPAPIEKTISKAKGQPREPQVYTLPPSRKKMTKNQVSLTCLVKGFYPSDIAVEWESNGQPENNYKTTPPVLKSDGSFFLYSKLTVDKSRWQQGNVFSCSVMHEALHNHYTQKSLSLSPGK light 2: EIVLTQSPATLSLSPGERATLSCRASKSVGRSLHWYQQKPGQAPRLLIKYASQSLSGIPARFSGSGSGTDFTLTISSLEPEDFAVYYCHQSSRLPFTFGPGTKVDIKRTVAAPSVFIFPPSDEQLKSGTASVVCLLNNFYPREAKVQWKVDNALQSGNSQESVTEQDSKDSTYSLESTLTLSKADYEKHKVYACEVTHQGLSSPVTKSFNRGEC heavy 2: not shown | 12.2 | 0.52 | 1.2 | 0.43 |
| iPS:454755 (bispecific antibody, human IgG1, kappa, lambda, N297G) light 1: QSVLTQPPSVSAAPGQKVTISCSGSYSNIGRYSVSWYQQLPGTAPKLLIYDNNKRPSGIPDRFSGSKSGTSATLGITGLQTGDEADYYCGTWDSRLSAVVFGGGTKLTVLGQPKAAPSVTLFPPSSEELQANKATLVCLISDFYPGAVTVAWKADSSPVKAGVETTTPSKQSNNKYAAKSYLSLTPEQWKSHRSYSCQVTHEGSTVEKTVAPTECS heavy 1: QVQLVESGGGVVQPGRSLRLSCAASGFTFSSFGMHWVRQAPGKGLEWVAVISFDGSIKYSVDSVKGRFTISRDNSKNTLFLQMNSLRAEDTAVYYCARDRLNYYESSGYYHYKYYGMAVWGQGTTVTVSSASTKGPSVFPLAPSSKSTSGGTAALGCLVKDYFPEPVTVSWNSGALTSGVHTFPAVLQSSGLYSLESVVTVPSSSLGTQTYICNVNHKPSNTKVDKKVEPKSCDKTHTCPPCPAPELLGGPSVFLFPPKPKDTLMISRTPEVTCVVVDVSHEDPEVKFNWYVDGVEVHNAKTKPCEEQYGSTYRCVSVLTVLHQDWLNGKEYKCKVSNKALPAPIEKTISKAKGQPREPQVYTLPPSRKKMTKNQVSLTCLVKGFYPSDIAVEWESNGQPENNYKTTPPVLKSDGSFFLYSKLTVDKSRWQQGNVFSCSVMHEALHNHYTQKSLSLSPGK light 2: EIVLTQSPATLSLSPGERATLSCRASKSVGRSLHWYQQKPGQAPRLLIKYASQSLSGIPARFSGSGSGTDFTLTISSLEPEDFAVYYCHQSSRLPFTFGPGTKVDIKRTVAAPSVFIFPPSDEQLKSGTASVVCLLNNFYPREAKVQWKVDNALQSGNSQESVTEQDSKDSTYSLESTLTLSKADYEKHKVYACEVTHQGLSSPVTKSFNRGEC heavy 2: not shown | 9.2 | 0.69 | 1.8 | 0.27 |
| iPS:454747 (bispecific antibody, human IgG1, kappa, lambda, N297G) light 1: QSVLTQPPSVSAAPGQKVTISCSGSYSNIGRYSVSWYQQLPGTAPKLLIYDNNKRPSGIPDRFSGSKSGTSATLGITGLQTGDEADYYCGTWDSRLSAVVFGGGTKLTVLGQPKAAPSVTLFPPSSEELQANKATLVCLISDFYPGAVTVAWKADSSPVKAGVETTTPSKQSNNKYAAKSYLSLTPEQWKSHRSYSCQVTHEGSTVEKTVAPTECS heavy 1: QVQLVESGGGVVQPGRSLRLSCAASGFTFSSFGMHWVRQAPGKGLEWVAVISFDGSIKYSVDSVKGRFTISRDNSKNTLFLQMNSLRAEDTAVYYCARDRLNYYESSGYYHYKYYGMAVWGQGTTVTVSSASTKGPSVFPLAPSSKSTSGGTAALGCLVKDYFPEPVTVSWNSGALTSGVHTFPAVLQSSGLYSLESVVTVPSSSLGTQTYICNVNHKPSNTKVDKKVEPKSCDKTHTCPPCPAPELLGGPSVFLFPPKPKDTLMISRTPEVTCVVVDVSHEDPEVKFNWYVDGVEVHNAKTKPCEEQYGSTYRCVSVLTVLHQDWLNGKEYKCKVSNKALPAPIEKTISKAKGQPREPQVYTLPPSRKKMTKNQVSLTCLVKGFYPSDIAVEWESNGQPENNYKTTPPVLKSDGSFFLYSKLTVDKSRWQQGNVFSCSVMHEALHNHYTQKSLSLSPGK light 2: EIVLTQSPATLSLSPGERATLSCRASRAVSNLHWYQQKPGQAPRLLIKYASQSLSGIPARFSGSGSGTDFTLTISSLEPEDFAVYYCHQSSYLPFTFGPGTKVDIKRTVAAPSVFIFPPSDEQLKSGTASVVCLLNNFYPREAKVQWKVDNALQSGNSQESVTEQDSKDSTYSLESTLTLSKADYEKHKVYACEVTHQGLSSPVTKSFNRGEC heavy 2: not shown | 2 | 3.09 | 1.2 | 0.49 |
| iPS:454749 (bispecific antibody, human IgG1, kappa, lambda, N297G) light 1: QSVLTQPPSVSAAPGQKVTISCSGSYSNIGRYSVSWYQQLPGTAPKLLIYDNNKRPSGIPDRFSGSKSGTSATLGITGLQTGDEADYYCGTWDSRLSAVVFGGGTKLTVLGQPKAAPSVTLFPPSSEELQANKATLVCLISDFYPGAVTVAWKADSSPVKAGVETTTPSKQSNNKYAAKSYLSLTPEQWKSHRSYSCQVTHEGSTVEKTVAPTECS heavy 1: QVQLVESGGGVVQPGRSLRLSCAASGFTFSSFGMHWVRQAPGKGLEWVAVISFDGSIKYSVDSVKGRFTISRDNSKNTLFLQMNSLRAEDTAVYYCARDRLNYYESSGYYHYKYYGMAVWGQGTTVTVSSASTKGPSVFPLAPSSKSTSGGTAALGCLVKDYFPEPVTVSWNSGALTSGVHTFPAVLQSSGLYSLESVVTVPSSSLGTQTYICNVNHKPSNTKVDKKVEPKSCDKTHTCPPCPAPELLGGPSVFLFPPKPKDTLMISRTPEVTCVVVDVSHEDPEVKFNWYVDGVEVHNAKTKPCEEQYGSTYRCVSVLTVLHQDWLNGKEYKCKVSNKALPAPIEKTISKAKGQPREPQVYTLPPSRKKMTKNQVSLTCLVKGFYPSDIAVEWESNGQPENNYKTTPPVLKSDGSFFLYSKLTVDKSRWQQGNVFSCSVMHEALHNHYTQKSLSLSPGK light 2: EIVLTQSPATLSLSPGERATLSCRASKSVGRSLHWYQQKPGQAPRLLIKYASQSLSGIPARFSGSGSGTDFTLTISSLEPEDFAVYYCHQSSRLPFTFGPGTKVDIKRTVAAPSVFIFPPSDEQLKSGTASVVCLLNNFYPREAKVQWKVDNALQSGNSQESVTEQDSKDSTYSLESTLTLSKADYEKHKVYACEVTHQGLSSPVTKSFNRGEC heavy 2: not shown | 7.5 | 0.83 | 1.4 | 0.41 |
| iPS:454753 (bispecific antibody, human IgG1, kappa, lambda, N297G) light 1: QSVLTQPPSVSAAPGQKVTISCSGSYSNIGRYSVSWYQQLPGTAPKLLIYDNNKRPSGIPDRFSGSKSGTSATLGITGLQTGDEADYYCGTWDSRLSAVVFGGGTKLTVLGQPKAAPSVTLFPPSSEELQANKATLVCLISDFYPGAVTVAWKADSSPVKAGVETTTPSKQSNNKYAAKSYLSLTPEQWKSHRSYSCQVTHEGSTVEKTVAPTECS heavy 1: QVQLVESGGGVVQPGRSLRLSCAASGFTFSSFGMHWVRQAPGKGLEWVAVISFDGSIKYSVDSVKGRFTISRDNSKNTLFLQMNSLRAEDTAVYYCARDRLNYYESSGYYHYKYYGMAVWGQGTTVTVSSASTKGPSVFPLAPSSKSTSGGTAALGCLVKDYFPEPVTVSWNSGALTSGVHTFPAVLQSSGLYSLESVVTVPSSSLGTQTYICNVNHKPSNTKVDKKVEPKSCDKTHTCPPCPAPELLGGPSVFLFPPKPKDTLMISRTPEVTCVVVDVSHEDPEVKFNWYVDGVEVHNAKTKPCEEQYGSTYRCVSVLTVLHQDWLNGKEYKCKVSNKALPAPIEKTISKAKGQPREPQVYTLPPSRKKMTKNQVSLTCLVKGFYPSDIAVEWESNGQPENNYKTTPPVLKSDGSFFLYSKLTVDKSRWQQGNVFSCSVMHEALHNHYTQKSLSLSPGK light 2: EIVLTQSPATLSLSPGERATLSCRASKSVGRSLHWYQQKPGQAPRLLIKYASQSLSGIPARFSGSGSGTDFTLTISSLEPEDFAVYYCHQSSRLPFTFGPGTKVDIKRTVAAPSVFIFPPSDEQLKSGTASVVCLLNNFYPREAKVQWKVDNALQSGNSQESVTEQDSKDSTYSLESTLTLSKADYEKHKVYACEVTHQGLSSPVTKSFNRGEC heavy 2: not shown | 10.4 | 0.61 | 1.3 | 0.37 |
